According to patent publication US20170198026A1, “Compositions And Methods For Treating Tumors And Immune Based Inflammatory Diseases” (The Schepens Eye Research Institute, Inc., priority 2014, published 2017):
Entries after “also recorded” stand apart in the source; their conditions may differ. One block for each molecule: values may come before it.

What was measured:
[1] = molecular target: T1, EMR2 (Homo sapiens, UniProt Q9UHX3); test: Blocking EMR2 ligand binding with soluble chondroitin sulfate in tolerogenic APC / lymphocyte co-culture; format: cell-based
T1 construct: endogenous in cells; host or cells: human peripheral blood monocytes (from Leukopac PBMC) cultured with TGFb2 and tetanus toxoid, giving tolerogenic APC
T1 sequence (Q9UHX3 24-823): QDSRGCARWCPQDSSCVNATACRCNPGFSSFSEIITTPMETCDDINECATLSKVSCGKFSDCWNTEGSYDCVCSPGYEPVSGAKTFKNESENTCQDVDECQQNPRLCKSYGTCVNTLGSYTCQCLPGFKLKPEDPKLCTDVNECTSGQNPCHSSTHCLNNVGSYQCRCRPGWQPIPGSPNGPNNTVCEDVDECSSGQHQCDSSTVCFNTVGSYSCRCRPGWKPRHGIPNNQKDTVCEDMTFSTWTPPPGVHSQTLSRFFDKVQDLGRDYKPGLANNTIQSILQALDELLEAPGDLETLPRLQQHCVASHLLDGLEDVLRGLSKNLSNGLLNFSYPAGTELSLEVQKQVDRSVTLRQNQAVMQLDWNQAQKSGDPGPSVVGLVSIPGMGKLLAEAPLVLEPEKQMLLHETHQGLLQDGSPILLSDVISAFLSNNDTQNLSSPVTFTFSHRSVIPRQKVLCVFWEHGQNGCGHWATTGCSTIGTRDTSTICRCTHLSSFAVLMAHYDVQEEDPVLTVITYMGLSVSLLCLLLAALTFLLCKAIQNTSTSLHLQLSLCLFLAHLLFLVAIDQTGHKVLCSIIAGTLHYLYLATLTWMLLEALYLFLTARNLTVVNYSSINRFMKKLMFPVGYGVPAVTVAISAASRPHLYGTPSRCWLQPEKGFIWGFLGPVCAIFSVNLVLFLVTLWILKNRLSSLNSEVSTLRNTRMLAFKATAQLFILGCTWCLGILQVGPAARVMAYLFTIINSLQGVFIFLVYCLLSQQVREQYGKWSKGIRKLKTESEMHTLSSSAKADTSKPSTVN
Procedure: Monocytes were cultured as outlined above. Soluble chondroitin sulfate from shark cartilage (Sigma-Aldrich, St. Louis, Mo.) was used to bind to EMR and block signaling at a concentration of 1.5 mg/mL. CD25 and FoxP3 expression as well as intracellular cytokine functionality was tested.
To mediate cell interactions, EMR2 binds to chondroitin sulfate GAGs on the opposing cell. To block EMR2 signaling and the induction of T regulatory cells, we added soluble chondroitin sulfate to the cell culture. Saturating the culture with soluble chondroitin sulfate competitively binds up available EMR2 molecules and subsequently block signaling from the APC to the lymphocytes.
We treated APC with soluble chondroitin sulfate (1.5 mg/mL) in the same conditions listed above. By using a dose curve, we found 1.5 mg/mL was the ideal concentration for saturating EMR2 receptors. Post co-culture with lymphocytes, we repeated surface and intracellular staining of lymphocytes to check for differences in FoxP3+ cells (FIG. 9).

[2] = test system: human APCs; test: Surface markers on human tolerogenic APC by flow cytometry; format: cell-based
Procedure: Isolated cells were plated on sterile petri dishes (BD Falcon, Franklin Lakes, N.J.) in serum-free culture medium, RPMI-1640 supplemented with Glutamax (Invitrogen, Carlsbad, Calif.), 1 mM sodium pyruvate, 0.1 mM non-essential amino acids, 100 U/mL Penicillin/Streptomycin, 10 mM HEPES (Invitrogen, Carlsbad, Calif.), Insulin/Transferrin/Selenium (ITS) (Invitrogen, Carlsbad, Calif.), and 0.1% BSA (Sigma-Aldrich, St. Louis, Mo.). Cells were cultured with or without 1 ng/mL porcine TGFβ2 (R&D Systems, Minneapolis, Minn.) for at least six hours. Cells were then pulsed with or without tetanus toxoid (TT) antigen (List Biological Laboratories, Campbell, Calif.) in serum-free media and incubated overnight in 37° C., 5% CO2.
APC were analyzed by flow cytometry to confirm the expression of myeloid and tolerogenic markers. CD14 (constitutive on monocyte-derived cells), Immunoglobulin-like transcript 3 (ILT3, cell surface immunoglobulin that co-ligates to APC stimulatory receptors to downregulate activation signals (Cella et al., 1997)), Programmed cell death 1 ligand 1 (PD-L1, well-known immunosuppressive ligand), and EMR2 were measured. Monoclonal antibodies to ILT3 and PD-L1 were purchased from eBioscience (San Diego, Calif.) and the monoclonal antibody to EMR2 was purchased from R&D Systems (Minneapolis, Minn.).

[3] = both TGFβ2 (1 ng/mL) and antigen (TT) compared to antigen or TGFβ2 alone

ideal concentration for saturating EMR2 receptors ([1]; dose curve, APC culture): 1.5 mg/mL
Molecule: chondroitin sulfate [soluble chondroitin sulfate]
CD25+ FoxP3+ cell populations (Treg production) ([1]; 1.5 mg/mL soluble chondroitin sulfate, APC treated with antigen and TGFβ, CD4+ gated lymphocytes post co-culture): no increase; also recorded: successfully blocks Treg production

B1: TGFβ2: porcine TGFβ2 (R&D Systems), aqueous humor immunosuppressive factor used to generate tolerogenic APC (protein, UniProt P09858 303-435, looked up)
Transforming growth factor …: ALDAAYCFRNVQDNCCLRPLYIDFKRDLGWKWIHEPKGYNANFCAGACPYLWSSDTQHSRVLSLYNTINPEASASPCCVSQDLEPLTILYYIGKTPKIEQLSNMIVKSCKCSKTKLAAFARLYHSHSNLGSET
EMR2 expression on APC ([2]; TGFβ2 (1 ng/mL) and antigen (TT)): also upregulated
ILT3 expression on APC [2, 3]: significantly (p≦0.05) upregulated
PD-L1 expression on APC [2, 3]: significantly (p≦0.05) upregulated
